Biological target: 60S ribosomal subunit-nascent chain complex made from F-VHP-β RNCs (not stated | rabbit (endogenous in reticulocyte lysate, RRL)) (UniProt G1TSG1)

ubiquitination of 60S versus 80S nascent chain complexes, separated on a sucrose gradient and given purified Listerin, E1, E2, ubiquitin and ATP (Figure S4E): 10 fold
Substance: FLAG-tagged human Listerin (from UniProt O94822 1-1766) (enzyme)
